Data set [1] deals with T1, BSA (bovine serum albumin) (UniProt P02769 P02769:25-607). Nature of the data set: no significant 3MI fluorescence change on array. The following applies: label: 3MI at position 7.
Data set [2] has as its target T1, BSA (bovine serum albumin). Nature of the data set: 6 uM BSA, no color change of array. The conditions noted are these: label: Alexa Fluor 488. The method, then:
(§1) Desired amount of detection targets were added into 10 μl multiplexed detection solution. Unless elsewhere mentioned, final concentration of detection targets was 0.5 μM for DNA targets, 6 μM for thrombin and 3 mM for ATP. The mixture was thoroughly mixed by vortexing and then incubated at room temperature for 30 min before imaging.
(§2) Two different aptamer binding targets were used: human α-thrombin and ATP (See Table 1). The DNA sequences of probe 3 and 4 are, in fact, the aptamer sequences for these two targets.

Data set [3] deals with T2, alpha-thrombin (Homo sapiens, UniProt P00734;P00734 P00734:328-363,P00734:364-622). Nature of the data set: no color change of array; 6 uM thrombin, 1xTAE-Mg, RT. The conditions noted are these: label: Alexa Fluor 488; partially hybridised to anchor strand on DNA B tile. As to the method:
as §1, §2

In data set [4] the target is alpha-thrombin (Homo sapiens, UniProt P00734;P00734 P00734:328-363,P00734:364-622). Nature of the data set: possibly CITED (ref 13); apparent Kd for strand-displacement probe; Table 1 labels of probes 3 and 4 appear swapped, Table 2 and sequence assign probe 3 to thro.
Data set [5] addresses T2, alpha-thrombin.
Where [6] appears, read: partially hybridised to anchor strand on DNA B tile.

Like-named read-outs stand apart in the source and are kept apart here.

T1 sequence (P02769 25-607, one chain of several): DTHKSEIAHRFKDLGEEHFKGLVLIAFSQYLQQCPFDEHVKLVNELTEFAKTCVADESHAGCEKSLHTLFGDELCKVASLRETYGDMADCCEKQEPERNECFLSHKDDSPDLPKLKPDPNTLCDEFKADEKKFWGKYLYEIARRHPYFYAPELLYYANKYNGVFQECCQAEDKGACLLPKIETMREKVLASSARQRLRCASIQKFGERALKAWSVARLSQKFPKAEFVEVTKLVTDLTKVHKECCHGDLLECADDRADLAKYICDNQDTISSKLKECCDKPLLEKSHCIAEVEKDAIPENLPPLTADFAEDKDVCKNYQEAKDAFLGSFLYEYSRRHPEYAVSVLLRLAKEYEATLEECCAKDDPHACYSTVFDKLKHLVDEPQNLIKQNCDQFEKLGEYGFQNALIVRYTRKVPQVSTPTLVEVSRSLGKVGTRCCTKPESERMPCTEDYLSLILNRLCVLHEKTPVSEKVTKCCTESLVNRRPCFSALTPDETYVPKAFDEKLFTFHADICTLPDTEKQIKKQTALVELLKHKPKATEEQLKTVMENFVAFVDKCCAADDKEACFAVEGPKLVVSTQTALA

As to GGTTGGTGTGGTTGG (structured_DNA, dT7 replaced by 3-methylisoxanthopterin (3MI)) [3MI-TBA signaling aptamer on DNA tile array], in data set [1], the binding result is “no binding”. CACTGACCTGGGGGAGTATTGCGGAGGAAGGT (ssDNA) [Probe 4 (ATP aptamer containing)]: in data set [2] (setting [6]), the binding result is listed as “no binding”. On to TTTAACAGCAGTTGAGTTGATACTACTGGCCTAATTCCA (ssDNA) [Probe 2 (HIV probe)], for which the binding result (in data set [2] (setting [6]); with alpha-thrombin [3]) was “no binding” each time. Consider CACTGTGGTTGGTGTGGTTGG (ssDNA) [Probe 3 (thrombin aptamer containing)], for which the binding result in data set [2] (partially hybridised to anchor strand on DNA B tile (8-12 bp)) is “no binding”. Further, in the data set with alpha-thrombin [4], the Kd is roughly 400 nM. For the molecule CGTCTCTACCTGATTACTATTGCATCT (ssDNA) [Probe 1 (SARS probe)], the binding result (in data set [2] (setting [6]); with alpha-thrombin [5]) was “no binding” each time.

These data come from patent US20100009868, “Self-Assembled Combinatorial Encoding Nanoarrays for Multiplexed Biosensing” (The Arizona Board of Regents a body corporate acti ng for …, published 2010).
